# Experimental data as given in article PMC8517440, “Structural and Catalytic Characterization of TsBGL, a β-Glucosidase From Thermofilum sp. ex4484_79” (Frontiers in Microbiology, 2021).
# B1: TsBGL (Thermofilum sp. ex4484_79) (protein)
# chain: MPFPEKFFWGASSSGFQFEMGDPEGKSIDPNTDWFKWVHDETNIRRGVVSGDLPEHGINYWDLFRSDHELAASIGMNAYRIGIEWSRIFPKPTLDVRVGIELDPEGYITRVEVDDKAIEELDLLANKEAVSRYREIILDLRDRGLKVFVCLNHFTLPLWIHDPIACRDTKLKRGPKGWVDKTTILEFAKYSAYMAWSLGNIVDYWVTFNEPMVVTEAGYFQPEVGFPPGLRNISAFKTACLNIANAHVVAYDLIKKYDKVRADDDSPSAAYVGIVHNIVPIKPYSERKLDLKAADLMNYIHNKWILEFIVRGKIDRSLVGREKYLIDKFKDKLDWLGVNYYTRIVLKGKWVPPLISPVPVIPDIVKGYGFNCTPGGRSLDGMPVSDFGWEVYPQGLSDALDIASEYGKPLIVTENGIADSEDNIRPYFLVSHLKVLEEYVEKKKNVYGYLHWALTDNYEWAQGFKMRFGLTDVDLETKERKPRESSEVFKIIASEKTVPEELVEKYPKPIF
# notes: synthetic gene in E. coli BL21(DE3) pLysS; N-terminal His6-SUMO tag cut with Ulp1; check)
# Assays:
# [1] = substrate: O=[N+]([O-])c1ccc(O[C@@H]2O[C@H](CO)[C@H](O)[C@H](O)[C@H]2O)cc1; experiment: purified protein; type: biochemical, Thermofilum sp. ex4484_79; conditions: pH 5.0, 90°C, table header prints mm^-1, text prints 1.05 mm
# [2] = substrate: O=[N+]([O-])c1ccc(O[C@@H]2O[C@H](CO)[C@@H](O)[C@H](O)[C@H]2O)cc1; experiment: purified protein; type: biochemical, Thermofilum sp. ex4484_79; conditions: pH 5.0, 90°C, 0.1-6.0 mM substrate, kcat printed 135.1 in Table 2
protein,measurement,setting,value
B1,Km,[1],1054 µM
same,kcat,[1],124 s⁻¹
same,kcat/Km,[1],118000 M⁻¹ s⁻¹
same,Km,[2],617 µM
same,kcat,[2],136.05 s⁻¹
